# Measurements published in US20220289854A1.
# B1: 455.1C11 anti-mouse CX3CR1 monoclonal antibody (antibody, V domains shown)
# VH: QVQLVETGGGLVRPGNSLKLSCVTSGFTFSNYRMHWLRQFPGKRLEWIAVIAFKSDKFGANYAESVKGRFAISRDDSKNSVYLEMSRLREEDTATYFCSRDGNGPFDYWGQGTTLTVSS
# VL: DIVMSQSPSSLTVSVGEKVTMSCKSSQSLLYSGNQKSYLAWYQQKPGQSPRLLIYWASTRESGVPDRFTGSGSGTDFTLTISGVKAEDLAVYYCQRYYGYPRTFGGGTKLEIK
# Biological target: mouse CX3CR1 (mouse)
# Assay: flow cytometry titration on Jurkat cells transfected with mCX3CR1; goat anti-mIgG PE
binder,measurement,value
B1,EC50,0.102 µg/mL
